Target: TSLP, Q969D9
Assay: Kd (SPR)

Row | Kd [nM] | Binder
1 | 387 | unnamed (protein) chain 1: QMQLVESGGGVVQPGRSLRLSCAASGFTFSTFAMHWVRQAPGKGLEWVAVIWYDGSNKHYADSVKGRFTITRDNSKNTLNLQMNSLRAEDTAVYYCARAPRYDDAYEAFDVWGQGTMVTVSS chain 2: SYVLTQPPSVSVAPGQTARITCGGNNLGSKSVHWYQQKPGQAPVLVVYDDSDRPSWIPERFSGSNSGNTATLTISRGEAGDEADYYCQVWDSSSDHVVFGGGTKLTVL
2 | 524 | unnamed (protein) chain 1: QMQLVESGGGVVQPGRSLRLSCAASGFTFSTYAMHWVRQAPGKGLEWVAVIWYDGSNKHYADSVKGRFTITRDNSKNTLNLQMNSLRAEDTAVYYCARSPRYDYYYEAFDVWGQGTMVTVSS chain 2: SYVLTQPPSVSVAPGQTARITCGGNNLGSKSVHWYQQKPGQAPVLVVYDDSDRPSWIPERFSGSNSGNTATLTISRGEAGDEADYYCQVWDSSSDHVVFGGGTKLTVL
3 | 502 | unnamed (protein) chain 1: QMQLVESGGGVVQPGRSLRLSCAASGFTFSTFAMHWVRQAPGKGLEWVAVIWYDGSNKHYADSVKGRFTITRDNSKNTLNLQMNSLRAEDTAVYYCARAPRYDEAYEAFDVWGQGTMVTVSS chain 2: SYVLTQPPSVSVAPGQTARITCGGNNLGSKSVHWYQQKPGQAPVLVVYDDSDRPSWIPERFSGSNSGNTATLTISRGEAGDEADYYCQVWDSSSDHVVFGGGTKLTVL
4 | 519 | unnamed (protein) chain 1: QMQLVESGGGVVQPGRSLRLSCAASGFTFSTFAMHWVRQAPGKGLEWVAVIWYDGSNKHYADSVKGRFTITRDNSKNTLNLQMNSLRAEDTAVYYCARAPRYDYYLEAFDVWGQGTMVTVSS chain 2: SYVLTQPPSVSVAPGQTARITCGGNNLGSKSVHWYQQKPGQAPVLVVYDDSDRPSWIPERFSGSNSGNTATLTISRGEAGDEADYYCQVWDSSSDHVVFGGGTKLTVL
5 | 353 | unnamed (protein) chain 1: QMQLVESGGGVVQPGRSLRLSCAASGFTFSTFAMHWVRQAPGKGLEWVAVIWYDGSNKHYADSVKGRFTITRDNSKNTLNLQMNSLRAEDTAVYYCARAPRYYWYWEAFDVWGQGTMVTVSS chain 2: SYVLTQPPSVSVAPGQTARITCGGNNLGSKSVHWYQQKPGQAPVLVVYDDSDRPSWIPERFSGSNSGNTATLTISRGEAGDEADYYCQVWDSSSDHVVFGGGTKLTVL
6 | 349 | unnamed (protein) chain 1: QMQLVESGGGVVQPGRSLRLSCAASGFTFSTFAMHWVRQAPGKGLEWVAVIWYDGSNKHYADSVKGRFTITRDNSKNTLNLQMNSLRAEDTAVYYCARAPRYDWDYEAFDVWGQGTMVTVSS chain 2: SYVLTQPPSVSVAPGQTARITCGGNNLGSKSVHWYQQKPGQAPVLVVYDDSDRPSWIPERFSGSNSGNTATLTISRGEAGDEADYYCQVWDSSSDHVVFGGGTKLTVL
7 | 320 | unnamed (protein) chain 1: QMQLVESGGGVVQPGRSLRLSCAASGFTFSTFAMHWVRQAPGKGLEWVAVIWYDGSNKHYADSVKGRFTITRDNSKNTLNLQMNSLRAEDTAVYYCARSPRYDDYWEAFDVWGQGTMVTVSS chain 2: SYVLTQPPSVSVAPGQTARITCGGNNLGSKSVHWYQQKPGQAPVLVVYDDSDRPSWIPERFSGSNSGNTATLTISRGEAGDEADYYCQVWDSSSDHVVFGGGTKLTVL
8 | 217 | unnamed (protein) chain 1: QMQLVESGGGVVQPGRSLRLSCAASGFTFSTFAMHWVRQAPGKGLEWVAVIWYDGGNKHYADSVKGRFTITRDNSKNTLNLQMNSLRAEDTAVYYCARAPRYDEYYEAFDVWGQGTMVTVSS chain 2: SYVLTQPPSVSVAPGQTARITCGGNNLGSKSVHWYQQKPGQAPVLVVYDDSDRPSWIPERFSGSNSGNTATLTISRGEAGDEADYYCQVWDSSSDHVVFGGGTKLTVL
9 | 372 | unnamed (protein) chain 1: QMQLVESGGGVVQPGRSLRLSCAASGFTFSTFAMHWVRQAPGKGLEWVAVIWYDGSNKHYADSVKGRFTITRDNSKNTLNLQMNSLRAEDTAVYYCARSPRYDYYYEAFDVWGQGTMVTVSS chain 2: SYVLTQPPSVSVAPGQTARITCGGNNLGSKSVHWYQQKPGQAPVLVVYDDSDRPSWIPERFSGSNSGNTATLTISRGEAGDEADYYCQVWDSSSDHVVFGGGTKLTVL
10 | 305 | unnamed (protein) chain 1: QMQLVESGGGVVQPGRSLRLSCAASGFTFSTFAMHWVRQAPGKGLEWVAVIWYDGSNKHYADSVKGRFTITRDNSKNTLNLQMNSLRAEDTAVYYCARAPRYDEYLEAFDVWGQGTMVTVSS chain 2: SYVLTQPPSVSVAPGQTARITCGGNNLGSKSVHWYQQKPGQAPVLVVYDDSDRPSWIPERFSGSNSGNTATLTISRGEAGDEADYYCQVWDSSSDHVVFGGGTKLTVL
11 | 285 | unnamed (protein) chain 1: QMQLVESGGGVVQPGRSLRLSCAASGFTFSTYAMHWVRQAPGKGLEWVAVIWYDGSNKHYADSVKGRFTITRDNSKNTLNLQMNSLRAEDTAVYYCARAPRYYDYWEAFDVWGQGTMVTVSS chain 2: SYVLTQPPSVSVAPGQTARITCGGNNLGSKSVHWYQQKPGQAPVLVVYDDSDRPSWIPERFSGSNSGNTATLTISRGEAGDEADYYCQVWDSSSDHVVFGGGTKLTVL
12 | 315 | unnamed (protein) chain 1: QMQLVESGGGVVQPGRSLRLSCAASGFTFSTYAMHWVRQAPGKGLEWVAVIWYDGSNKHYADSVKGRFTITRDNSKNTLNLQMNSLRAEDTAVYYCARAPRYDYYYEAFDVWGQGTMVTVSS chain 2: SYVLTQPPSVSVAPGQTARITCGGNNLGSKSVHWYQQKPGQAPVLVVYDDSDRPSWIPERFSGSNSGNTATLTISRGEAGDEADYYCQVWDSSSDHVVFGGGTKLTVL
13 | 105 | unnamed (protein) chain 1: QMQLVESGGGVVQPGRSLRLSCAASGFTFSTYAMHWVRQAPGKGLEWVAVIWYDGSNKHYADSVKGRFTITRDNSKNTLNLQMNSLRAEDTAVYYCARAPRYYEYYEAFDVWGQGTMVTVSS chain 2: SYVLTQPPSVSVAPGQTARITCGGNNLGSKSVHWYQQKPGQAPVLVVYDDSDRPSWIPERFSGSNSGNTATLTISRGEAGDEADYYCQVWDSSSDHVVFGGGTKLTVL
14 | 103 | unnamed (protein) chain 1: QMQLVESGGGVVQPGRSLRLSCAASGFTFSTFAMHWVRQAPGKGLEWVAVIWYDGSNKHYADSVKGRFTITRDNSKNTLNLQMNSLRAEDTAVYYCARSPRYDEYYEAFDVWGQGTMVTVSS chain 2: SYVLTQPPSVSVAPGQTARITCGGNNLGSKSVHWYQQKPGQAPVLVVYDDSDRPSWIPERFSGSNSGNTATLTISRGEAGDEADYYCQVWDSSSDHVVFGGGTKLTVL
